Experimental data reported in the supplement of paper PMC9876800.

System: peptide library, one residue held at a place counted from the S/T acceptor
Assay: relative phosphorylation of the sub-library (ratio to the mean residue at this position); human; higher = residue favoured
Method in brief: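 In 384-well plates, purified recombinant kinases (human or orthologue constructs) were incubated for 90 min under kinase-specific conditions with 50 μM biotinylated degenerate peptide sub-libraries and 50 μM ATP spiked with γ-32P-ATP. Each sub-library fixed a single residue at one position around a central Ser/Thr. Relative sub-library phosphorylation, measured by phosphorimaging and densitometry of streptavidin membrane spots, is given as a ratio to the mean residue at that position.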

Sequence of BRSK2, construct: Full length (Q8IWQ3 whole entry, looked up): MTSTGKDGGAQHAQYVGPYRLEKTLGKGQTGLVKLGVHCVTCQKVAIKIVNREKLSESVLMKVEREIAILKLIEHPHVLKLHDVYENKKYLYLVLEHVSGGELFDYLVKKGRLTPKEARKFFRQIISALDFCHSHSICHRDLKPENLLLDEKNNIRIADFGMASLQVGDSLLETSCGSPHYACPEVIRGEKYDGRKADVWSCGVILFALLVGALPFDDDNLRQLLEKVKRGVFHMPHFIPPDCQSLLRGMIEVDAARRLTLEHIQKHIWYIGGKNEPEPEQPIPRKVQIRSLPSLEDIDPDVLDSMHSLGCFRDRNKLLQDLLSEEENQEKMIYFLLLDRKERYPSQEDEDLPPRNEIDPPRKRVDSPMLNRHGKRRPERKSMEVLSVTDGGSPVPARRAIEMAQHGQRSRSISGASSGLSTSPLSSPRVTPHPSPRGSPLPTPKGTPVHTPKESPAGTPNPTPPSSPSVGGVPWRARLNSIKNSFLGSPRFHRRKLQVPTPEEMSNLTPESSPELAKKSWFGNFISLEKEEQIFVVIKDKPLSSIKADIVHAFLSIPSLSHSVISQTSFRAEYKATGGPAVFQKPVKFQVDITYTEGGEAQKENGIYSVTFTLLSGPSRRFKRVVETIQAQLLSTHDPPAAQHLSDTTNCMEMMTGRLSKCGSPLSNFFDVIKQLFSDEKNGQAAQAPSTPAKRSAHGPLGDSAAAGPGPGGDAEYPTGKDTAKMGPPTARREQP
Sequence of CAMK1, construct: Full length (Q14012 whole entry, looked up): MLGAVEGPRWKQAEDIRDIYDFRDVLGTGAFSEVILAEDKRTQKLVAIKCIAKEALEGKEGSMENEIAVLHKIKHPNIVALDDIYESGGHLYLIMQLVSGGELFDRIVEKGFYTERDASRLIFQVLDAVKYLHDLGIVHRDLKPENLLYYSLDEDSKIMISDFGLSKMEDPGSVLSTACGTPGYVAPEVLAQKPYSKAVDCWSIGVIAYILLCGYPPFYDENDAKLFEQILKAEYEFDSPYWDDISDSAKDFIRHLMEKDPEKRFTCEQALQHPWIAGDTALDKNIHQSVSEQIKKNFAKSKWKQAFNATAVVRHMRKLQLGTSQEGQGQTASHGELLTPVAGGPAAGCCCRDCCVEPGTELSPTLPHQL
Sequence of CAMK2D, construct: Full length (Q13557 whole entry, looked up): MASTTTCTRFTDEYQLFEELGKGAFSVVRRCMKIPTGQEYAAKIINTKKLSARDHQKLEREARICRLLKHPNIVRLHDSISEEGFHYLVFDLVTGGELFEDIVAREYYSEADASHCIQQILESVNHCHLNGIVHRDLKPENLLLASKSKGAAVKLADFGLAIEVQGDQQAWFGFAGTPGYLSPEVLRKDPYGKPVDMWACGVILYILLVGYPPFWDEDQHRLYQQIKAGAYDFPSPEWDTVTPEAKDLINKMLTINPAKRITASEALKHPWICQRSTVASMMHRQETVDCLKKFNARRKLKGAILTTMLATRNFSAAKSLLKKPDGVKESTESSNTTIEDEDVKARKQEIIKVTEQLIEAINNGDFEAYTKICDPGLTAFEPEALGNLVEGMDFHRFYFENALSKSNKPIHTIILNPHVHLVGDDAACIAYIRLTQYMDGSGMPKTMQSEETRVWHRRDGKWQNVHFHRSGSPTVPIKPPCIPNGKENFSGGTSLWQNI

BRSK2, construct: Full length (from UniProt Q8IWQ3)
relative phosphorylation
Conditions | at +1 | at +2 | at +3 | at +4 | at -1 | at -2 | at -3 | at -4 | at -5
A fixed | 0.653 | 0.569 | 0.726 | 0.598 | 1.07 | 1.91 | 0.829 | 1.14 | 1.01
D fixed | 0.341 | 0.505 | 1.34 | 0.41 | 0.539 | 0.816 | 0.264 | 0.367 | 0.357
E fixed | 0.396 | 0.471 | 0.574 | 0.299 | 0.433 | 0.659 | 0.257 | 0.435 | 0.355
F fixed | 2.02 | 1.69 | 1.95 | 1.3 | 0.867 | 1.19 | 0.728 | 0.686 | 1.2
G fixed | 0.53 | 0.464 | 0.85 | 0.562 | 1.3 | 1.35 | 0.703 | 1.16 | 0.964
H fixed | 0.802 | 1.49 | 1.25 | 0.718 | 1.18 | 1.05 | 1.31 | 1.3 | 0.842
I fixed | 1.03 | 0.679 | 0.518 | 3.23 | 0.674 | 0.591 | 0.389 | 0.522 | 1.08
K fixed | 0.624 | 0.337 | 0.775 | 0.727 | 1.53 | 1.04 | 2.71 | 2.04 | 1.35
L fixed | 1.17 | 0.739 | 0.609 | 3.06 | 0.956 | 0.564 | 0.427 | 0.58 | 1.27
M fixed | 3.01 | 0.951 | 0.675 | 1.47 | 1.14 | 0.664 | 0.589 | 0.881 | 1.33
N fixed | 0.925 | 1.03 | 2.68 | 0.671 | 1.02 | 0.843 | 0.681 | 0.752 | 0.599
P fixed | 0.203 | 0.489 | 0.403 | 0.654 | 1.55 | 0.833 | 0.687 | 1.58 | 0.954
Q fixed | 1.19 | 1.01 | 1.07 | 0.661 | 1.12 | 0.701 | 0.861 | 0.913 | 0.817
R fixed | 1.07 | 0.416 | 0.916 | 0.599 | 1.2 | 1.35 | 4.56 | 2.14 | 1.71
V fixed | 0.914 | 0.567 | 0.499 | 0.876 | 0.781 | 0.978 | 0.405 | 0.678 | 0.801
W fixed | 0.924 | 1.98 | 1.09 | 0.607 | 0.642 | 1.34 | 0.886 | 0.976 | 1.12
Y fixed | 1.2 | 3.62 | 1.08 | 0.559 | 1.01 | 1.13 | 0.711 | 0.844 | 1.24
pThr fixed | 0.909 | 0.54 | 0.378 | 0.452 | 0.332 | 0.451 | 0.401 | 0.624 | 0.6
pTyr fixed | 0.419 | 0.504 | 0.571 | 0.287 | 0.899 | 0.366 | 0.376 | 0.533 | 0.594

CAMK1, construct: Full length (from UniProt Q14012)
relative phosphorylation
Conditions | at +1 | at +2 | at +3 | at +4 | at -1 | at -2 | at -3 | at -4 | at -5
A fixed | 0.669 | 0.817 | 0.709 | 0.598 | 0.804 | 1.02 | 0.635 | 0.826 | 0.346
D fixed | 0.448 | 0.609 | 1.01 | 0.758 | 0.925 | 0.25 | 0.157 | 0.285 | 0.205
E fixed | 0.497 | 0.508 | 0.699 | 0.628 | 0.483 | 0.322 | 0.178 | 0.542 | 0.189
F fixed | 2.41 | 1.16 | 1.44 | 1.44 | 0.637 | 0.398 | 0.201 | 0.833 | 1.56
G fixed | 0.623 | 0.554 | 0.911 | 0.897 | 0.773 | 0.607 | 0.218 | 0.614 | 0.402
H fixed | 0.834 | 1.26 | 1.23 | 0.911 | 1.17 | 0.757 | 0.603 | 0.942 | 0.527
I fixed | 0.715 | 1.06 | 0.751 | 1.42 | 0.49 | 0.413 | 0.165 | 1.03 | 1.49
K fixed | 1.35 | 1.13 | 0.881 | 0.821 | 1.87 | 2.03 | 2.38 | 2.62 | 0.663
L fixed | 0.767 | 1.16 | 0.962 | 1.82 | 0.965 | 0.54 | 0.188 | 1.12 | 2.97
M fixed | 1.21 | 0.986 | 0.938 | 1.37 | 1.01 | 1.33 | 0.252 | 1.13 | 1.39
N fixed | 1.13 | 1.18 | 1.64 | 1.07 | 2.03 | 0.856 | 0.369 | 0.802 | 0.394
P fixed | 0.263 | 0.598 | 0.75 | 1.21 | 1.31 | 0.245 | 0.274 | 0.575 | 1.54
Q fixed | 1.44 | 1 | 1.14 | 1.01 | 1.23 | 2.24 | 0.784 | 1.11 | 0.976
R fixed | 1.96 | 1.42 | 0.961 | 0.679 | 1.59 | 4.18 | 9.87 | 2.11 | 1.8
V fixed | 0.758 | 0.857 | 0.663 | 0.732 | 0.504 | 0.469 | 0.177 | 1.01 | 0.676
W fixed | 0.932 | 1.36 | 1.38 | 0.911 | 0.45 | 0.842 | 0.325 | 0.633 | 0.924
Y fixed | 0.99 | 1.34 | 0.935 | 0.716 | 0.753 | 0.488 | 0.227 | 0.827 | 0.946
pThr fixed | 0.649 | 0.596 | 0.601 | 0.682 | 0.288 | 0.264 | 0.201 | 0.389 | 0.248
pTyr fixed | 0.654 | 1.94 | 0.848 | 0.605 | 0.604 | 0.361 | 0.473 | 0.445 | 0.461

CAMK2D, construct: Full length (from UniProt Q13557)
relative phosphorylation
Conditions | at +1 | at +2 | at +3 | at +4 | at -1 | at -2 | at -3 | at -4 | at -5
A fixed | 0.696 | 0.903 | 1.09 | 1.13 | 1.05 | 1.26 | 0.926 | 1.07 | 0.966
D fixed | 0.461 | 3.3 | 1.4 | 1.45 | 0.967 | 0.476 | 0.264 | 0.439 | 0.415
E fixed | 0.719 | 2.31 | 1.46 | 1.41 | 0.674 | 0.625 | 0.316 | 0.691 | 0.378
F fixed | 2.39 | 0.604 | 0.852 | 0.726 | 0.811 | 0.914 | 0.887 | 1.22 | 1.38
G fixed | 0.609 | 1.06 | 1.51 | 1.38 | 1.17 | 1.41 | 0.814 | 1.03 | 0.827
H fixed | 0.719 | 1.03 | 1.17 | 0.962 | 1.08 | 0.894 | 1.05 | 0.86 | 0.922
I fixed | 1.93 | 0.599 | 0.699 | 0.705 | 0.699 | 0.547 | 0.575 | 0.946 | 1.11
K fixed | 0.476 | 0.569 | 0.669 | 0.688 | 1.21 | 0.858 | 1.68 | 0.967 | 0.794
L fixed | 1.44 | 0.553 | 0.894 | 0.686 | 0.893 | 0.62 | 0.626 | 1.03 | 1.7
M fixed | 1.72 | 0.605 | 0.793 | 0.711 | 1.15 | 1.12 | 0.782 | 1.2 | 1.22
N fixed | 0.705 | 1.17 | 0.981 | 1.03 | 1.23 | 0.956 | 0.689 | 0.707 | 0.597
P fixed | 0.278 | 0.626 | 1.09 | 1.81 | 1.55 | 0.45 | 0.909 | 1.02 | 1.12
Q fixed | 1.17 | 0.957 | 1.03 | 1 | 1.16 | 2.51 | 0.973 | 0.875 | 0.708
R fixed | 0.5 | 0.716 | 0.61 | 0.549 | 0.882 | 1.02 | 3.93 | 1.09 | 1.03
V fixed | 1.65 | 0.676 | 0.835 | 0.787 | 0.728 | 0.655 | 0.551 | 0.926 | 0.92
W fixed | 0.636 | 0.619 | 0.977 | 1.1 | 0.7 | 1.74 | 1.19 | 1.66 | 1.68
Y fixed | 0.9 | 0.702 | 0.963 | 0.88 | 1.05 | 0.949 | 0.844 | 1.27 | 1.24
pThr fixed | 1.02 | 1.01 | 1.39 | 2.4 | 0.353 | 0.348 | 0.448 | 0.653 | 0.605
pTyr fixed | 0.872 | 3.27 | 1.12 | 1.45 | 0.933 | 0.349 | 0.424 | 0.609 | 0.606
